We go through six molecules from paper PMC3365051, “Sequence-Specific Binding of Recombinant Zbed4 to DNA: Insights into Zbed4 Participation in Gene Transcription and Its Association with Other Proteins”.

T1: Zbed4 (mouse (cDNA from mouse retinal RNA), UniProt Q80WQ9 1-1168)
T1 sequence: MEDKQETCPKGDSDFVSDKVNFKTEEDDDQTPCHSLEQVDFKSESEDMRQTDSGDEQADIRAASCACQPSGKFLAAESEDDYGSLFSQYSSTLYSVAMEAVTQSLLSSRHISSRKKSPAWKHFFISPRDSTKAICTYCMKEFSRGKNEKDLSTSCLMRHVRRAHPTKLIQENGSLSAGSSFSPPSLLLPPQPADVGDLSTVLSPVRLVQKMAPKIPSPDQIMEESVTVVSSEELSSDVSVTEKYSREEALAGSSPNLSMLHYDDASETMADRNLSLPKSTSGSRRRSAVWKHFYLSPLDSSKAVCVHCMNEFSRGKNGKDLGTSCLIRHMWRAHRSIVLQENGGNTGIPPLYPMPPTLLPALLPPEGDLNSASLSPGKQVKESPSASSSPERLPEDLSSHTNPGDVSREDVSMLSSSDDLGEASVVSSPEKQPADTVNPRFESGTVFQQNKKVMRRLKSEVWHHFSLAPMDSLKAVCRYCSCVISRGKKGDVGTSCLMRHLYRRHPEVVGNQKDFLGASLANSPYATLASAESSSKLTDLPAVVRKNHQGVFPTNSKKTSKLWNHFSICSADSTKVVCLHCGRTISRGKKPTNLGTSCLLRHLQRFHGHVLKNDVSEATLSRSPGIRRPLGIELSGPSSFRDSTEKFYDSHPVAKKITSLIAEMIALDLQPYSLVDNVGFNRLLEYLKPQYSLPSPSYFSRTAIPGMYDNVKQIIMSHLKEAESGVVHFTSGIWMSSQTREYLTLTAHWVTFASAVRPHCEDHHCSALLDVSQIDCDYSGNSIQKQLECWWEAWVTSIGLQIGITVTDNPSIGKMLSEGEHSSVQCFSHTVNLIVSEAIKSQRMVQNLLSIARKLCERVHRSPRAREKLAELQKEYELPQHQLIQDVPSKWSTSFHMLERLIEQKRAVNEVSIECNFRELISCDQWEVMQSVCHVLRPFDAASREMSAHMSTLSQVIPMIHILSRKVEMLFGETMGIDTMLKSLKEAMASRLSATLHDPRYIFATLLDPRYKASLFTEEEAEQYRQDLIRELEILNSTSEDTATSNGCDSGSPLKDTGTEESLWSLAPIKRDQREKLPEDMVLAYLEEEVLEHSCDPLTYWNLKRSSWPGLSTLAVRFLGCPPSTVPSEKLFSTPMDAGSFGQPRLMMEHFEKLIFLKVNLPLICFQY

The data set has as its target T1, Zbed4. The data set can be described thus: EMSA; 20 ug Zbed4, 0.5 nM oligo in 20 mM HEPES pH 7.5, 150 mM NaCl, 5 mM beta-mercaptoethanol, 5% glycerol, 0.5 mM ascorbic acid, 0.5 mM propyl gallate, 10 uM ZnSO4. As to conditions: protein: recombinant; tags: C-terminal His8.
With AAAAATGGGCGGAATAAAAA (ssDNA) [GC-box2], the binding result is reported as “no binding”.
In the case of TTTTTTTTTTTTTTTTTTT (ssDNA) [poly-T (called 20-mer, 19 T printed)] it was “no binding”.
To AAAAAAAAAAAAAAAAAAAA (ssDNA) [poly-A (A20)] belongs “no binding”.
In the case of UUUUUCCCCCCCCCCUUUUU (ssRNA) [poly-ribo-C] it was “no binding”.
Consider UUUUUGGGGGGGGGGUUUUU (ssRNA) [poly-ribo-G], for which the binding result is given as “binds”.
To AAAAAGGGGCGGGGCAAAAA (ssDNA) [GC-box1] belongs “binds”.
